Data from PMC11166264 (Cell reports, 2021).
Read-outs that look alike come from different tables or passages of the source. No end group written: not given here. *: point of attachment. Biotin = O=C1N[C@H]2[C@H](CS[C@H]2CCCCC(=O)*)N1

T1: HA-dmRanGAP (Drosophila melanogaster, UniProt Q9VIW3 1-596)
T1 sequence (looked up): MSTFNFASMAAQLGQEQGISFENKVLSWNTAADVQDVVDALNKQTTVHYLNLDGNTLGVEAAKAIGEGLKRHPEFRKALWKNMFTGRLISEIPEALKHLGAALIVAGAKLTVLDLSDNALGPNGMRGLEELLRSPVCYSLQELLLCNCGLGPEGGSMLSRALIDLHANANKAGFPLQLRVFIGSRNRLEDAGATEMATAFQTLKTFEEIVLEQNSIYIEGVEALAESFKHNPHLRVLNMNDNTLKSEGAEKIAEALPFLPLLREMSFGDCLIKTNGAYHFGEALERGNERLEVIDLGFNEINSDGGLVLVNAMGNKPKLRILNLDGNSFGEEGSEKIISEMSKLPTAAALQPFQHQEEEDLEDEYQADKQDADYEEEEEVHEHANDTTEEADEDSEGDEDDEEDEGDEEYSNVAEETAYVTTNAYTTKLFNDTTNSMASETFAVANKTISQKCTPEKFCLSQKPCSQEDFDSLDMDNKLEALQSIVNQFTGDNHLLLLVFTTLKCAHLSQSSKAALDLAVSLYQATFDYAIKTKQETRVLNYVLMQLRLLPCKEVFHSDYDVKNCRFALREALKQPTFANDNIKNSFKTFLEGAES

B1: dmRanBP2B-Frag (aa 2151-2250 of dmRanBP2B isoform) (domain or fragment, Drosophila melanogaster, UniProt A0A0B4K7J2 2151-2250, looked up)
chain: KPIEDSPVVGSVSQSTEANKPSQKNDGAAKSRGGESEVLDVGKTSSVRPTTHEVIPPLPMTLPLLTLPQPLAKPNDYQTPATILFKGSSLSRNNSSASEA
B2: Biotinylated BP2 peptide (aa 2197-2219 of dmRanBP2) (peptide)
peptide: Biotin-VRPTTHEVIPPLPMTLPLLTLPQ

What was measured:
[1] = biological target: T1, HA-dmRanGAP; experiment: pull-down
[2] = biological target: T1, HA-dmRanGAP; experiment: pull-down; remark: listed apart in the source

Binder | binding result [1] | binding result [2]
B1 | binds | –
B2 | – | binds
